According to patent US20220235103A1 (Molecular Partners, published 2022):

Legend:
Assay in all cases: cell-based or functional assay
[1] = target: SARS-CoV-2 spike protein S477N (SARS-CoV-2, UniProt P0DTC2 14-1273)
[2] = target: SARS-CoV-2 spike protein G446V (SARS-CoV-2, UniProt P0DTC2 14-1273)
[3] = target: T1, SARS-CoV-2 spike protein, wild type (Wuhan) (SARS-CoV-2, UniProt P0DTC2 14-1273)
[4] = target: SARS-CoV-2 spike protein N501Y (SARS-CoV-2, UniProt P0DTC2 14-1273)
[5] = target: SARS-CoV-2 spike protein E484K (SARS-CoV-2, UniProt P0DTC2 14-1273)
[6] = target: SARS-CoV-2 spike protein Y453F (SARS-CoV-2, UniProt P0DTC2 14-1273)
[7] = target: SARS-CoV-2 spike protein Q493K (SARS-CoV-2, UniProt P0DTC2 14-1273)
[8] = target: T2, SARS-CoV-2 spike protein V483A (SARS-CoV-2, UniProt P0DTC2 14-1273)
[9] = target: SARS-CoV-2 spike protein F486V (SARS-CoV-2, UniProt P0DTC2 14-1273)
[10] = target: SARS-CoV-2 spike protein N439K (SARS-CoV-2, UniProt P0DTC2 14-1273)
[11] = target: SARS-CoV-2 spike protein T478I (SARS-CoV-2, UniProt P0DTC2 14-1273)
[12] = target: SARS-CoV-2 spike protein F490S (SARS-CoV-2, UniProt P0DTC2 14-1273)
[13] = target: SARS-CoV-2 spike protein P479S (SARS-CoV-2, UniProt P0DTC2 14-1273)
[14] = target: SARS-CoV-2 spike protein K417E (SARS-CoV-2, UniProt P0DTC2 14-1273)
[15] = target: SARS-CoV-2 spike protein A222V (SARS-CoV-2, UniProt P0DTC2 14-1273)
[16] = target: SARS-CoV-2 spike protein variant B.1.351 (SARS-CoV-2, UniProt P0DTC2 14-1273)
[17] = target: T3, SARS-CoV-2 spike protein D614G (SARS-CoV-2, UniProt P0DTC2 14-1273)
[18] = target: T4, SARS-CoV-2 spike protein G476S (SARS-CoV-2, UniProt P0DTC2 14-1273)
[19] = target: spike protein of live SARS-CoV-2 (2019-nCoV/IDF0372/2020) (SARS-CoV-2, UniProt P0DTC2 14-1273)
[20] = target: T1, SARS-CoV-2 spike protein, wild type …; remark: listed apart in the source
[21] = target: T2, SARS-CoV-2 spike protein V483A; remark: listed apart in the source
[22] = target: SARS-CoV-2 spike protein D614G x Q675H (SARS-CoV-2, UniProt P0DTC2 14-1273)
[23] = target: T3, SARS-CoV-2 spike protein D614G; remark: listed apart in the source
[24] = target: T4, SARS-CoV-2 spike protein G476S; remark: listed apart in the source
[25] = target: T1, SARS-CoV-2 spike protein, wild type …; remark: listed apart in the source

B1: ALE049 (designed binder)
chain: MRGSHHHHHHGSDLGKKLLEAARAGQDDEVRELLKAGADVNAKDYFSHTPLHLAARNGHLKIVEVLLKAGADVNAKDFAGKTPLHLAANEGHLEIVEVLLKAGADVNAQDIFGKTPADIAADAGHEDIAEVLQKAAGSPTPTPTTPTPTPTTPTPTPTGSDLGKKLLEAARAGQDDEVRELLKAGADVNAKDYFSHTPLHLAARNGHLKIVEVLLKAGADVNAKDFAGKTPLHLAANEGHLEIVEVLLKAGADVNAQDIFGKTPADIAADAGHEDIAEVLQKAAGSPTPTPTTPTPTPTTPTPTPTGSDLGKKLLQAARAGQLDEVRELLKAGADVNAKDREGITPLHLAAQHGHLEIVEVLLKAGADVNAKDVWGRTPLHLAAWQGHLEIVEVLLKAGADVNAKDLAGATPLHVAALYGHLEIVEVLLKAGADVNAQDKSGKTPADLAARAGHQDIAEVLQKAAGSPTPTPTTPTPTPTTPTPTPTGSDLGKKLLQAARAGQLDEVRELLKAGADVNAKDREGKTPLHVAAQEGHLEIVEVLLKAGADVNAKDVWGRTPLHLAAWIGHLEIVEVLLKAGADVNAKDVSGATPLHAAALHGHLEIVEVLLNAGADVNAQDKSGKTPADLAARAGHQDIAEVLQKAAGSPTPTPTTPTPTPTTPTPTPTGSDLGKKLLQAARAGQLDEVRELLKAGADVNAKDQEGITPLHVAAHQGHLEIVEVLLKAGADVNAKDVWGRTPLHLAAWRGHLEIVEVLLKAGADVNAKDHAGATPLHAAALSGHLEIVEVLLKAGADVNAQDKSGKTPADLAARAGHQDIAEVLQKAA
VSV Pseudotype Neutralization Assay IC50 [1]: 1.9 ng/mL
VSV Pseudotype Neutralization Assay IC50 [2]: 1.7 ng/mL
VSV Pseudotype Neutralization Assay IC50 [3]: 1 ng/mL
VSV Pseudotype Neutralization Assay IC50 [4]: 0.5 ng/mL
VSV Pseudotype Neutralization Assay IC50 [5]: 2.7 ng/mL
VSV Pseudotype Neutralization Assay IC50 [6]: 3.2 ng/mL
VSV Pseudotype Neutralization Assay IC50 [7]: 7.9 ng/mL
VSV Pseudotype Neutralization Assay IC50 [8]: 2.3 ng/mL
VSV Pseudotype Neutralization Assay IC50 [9]: > 100 ng/mL
VSV Pseudotype Neutralization Assay IC50 [10]: 1.3 ng/mL
VSV Pseudotype Neutralization Assay IC50 [11]: 2.7 ng/mL
VSV Pseudotype Neutralization Assay IC50 [12]: 3.8 ng/mL
VSV Pseudotype Neutralization Assay IC50 [13]: 2.1 ng/mL
VSV Pseudotype Neutralization Assay IC50 [14]: 0.5 ng/mL
VSV Pseudotype Neutralization Assay IC50 [15]: 2.2 ng/mL
VSV Pseudotype Neutralization Assay IC50 [16]: 3 ng/mL
VSV Pseudotype Neutralization Assay IC50 [17]: 2.4 ng/mL
VSV Pseudotype Neutralization Assay IC50 [18]: 1.5 ng/mL
IC50 LV (live virus cytopathic effect assay) [19]: 0.025 nM
Potency of inhibition of SARS-CoV-2 spike protein variants (IC50) [20]: 0.0165 nM
Potency of inhibition of SARS-CoV-2 spike protein variants (IC50) [21]: 0.0275 nM
Potency of inhibition of SARS-CoV-2 spike protein variants (IC50) [22]: 0.0121 nM
Potency of inhibition of SARS-CoV-2 spike protein variants (IC50) [23]: 0.0118 nM
Potency of inhibition of SARS-CoV-2 spike protein variants (IC50) [24]: 0.0271 nM
IC50 (read off the curve), SARS-CoV-2 VSV pseudotype virus, no competitor [25]: ~0.1 nM

B2: ALE058 (designed binder)
chain: MRGSHHHHHHGSDLGKKLLEAARAGQDDEVRELLKAGADVNAKDYFSHTPLHLAARNGHLKIVEVLLKAGADVNAKDFAGKTPLHLAANEGHLEIVEVLLKAGADVNAQDIFGKTPADIAADAGHEDIAEVLQKAAGSPTPTPTTPTPTPTTPTPTPTGSDLGKKLLEAARAGQDDEVRELLKAGADVNAKDYFSHTPLHLAARNGHLKIVEVLLKAGADVNAKDFAGKTPLHLAANEGHLEIVEVLLKAGADVNAQDIFGKTPADIAADAGHEDIAEVLQKAAGSPTPTPTTPTPTPTTPTPTPTGSDLGKKLLQAARAGQLDEVRELLKAGADVNAKDQEGITPLHVAAHQGHLEIVEVLLKAGADVNAKDVWGRTPLHLAAWRGHLEIVEVLLKAGADVNAKDHAGATPLHAAALSGHLEIVEVLLKAGADVNAQDKSGKTPADLAARAGHQDIAEVLQKAAGSPTPTPTTPTPTPTTPTPTPTGSDLGHKLLLAAQAGQDDEVRILLAAGADVNAKDVFGQTPLHVAAVAGHLEIVEVLLKAGADVNAKDSIGYTPLHHAARVGHLEIVEVLLKAGADVNAQDWIGITPADLAAFEGHEDIAEVLQKAAGSPTPTPTTPTPTPTTPTPTPTGSDLGQKLLHAAQYGQDDEVRILLAAGADVNAKDKQGNTPLHIAAFHGHLEIVEVLLKAGADVNAKDQWGLTPLHLAAAWGHLEIVEVLLKAGADVNAQDNYGQTPADLAAESGHEDIAEVLQKAA
IC50 LV (live virus cytopathic effect assay) [19]: 0.1 nM
Potency of inhibition of SARS-CoV-2 spike protein variants (IC50) [20]: 0.00548 nM
Potency of inhibition of SARS-CoV-2 spike protein variants (IC50) [21]: 0.0324 nM
Potency of inhibition of SARS-CoV-2 spike protein variants (IC50) [22]: 0.0224 nM
Potency of inhibition of SARS-CoV-2 spike protein variants (IC50) [23]: 0.00464 nM
Potency of inhibition of SARS-CoV-2 spike protein variants (IC50) [24]: 0.0145 nM
IC50 (read off the curve), SARS-CoV-2 VSV pseudotype virus, no competitor [25]: ~0.1 nM
